The values that follow come from the supplement of paper PMC12636428.

For the data set, the system named is Saccharomyces cerevisiae. Description: transcriptional activation domain activity (GFP:mCherry ratio, weighted mean of sorted bins, harmonized to initial dataset scale) (arbitrary fluorescence ratio units); higher = stronger transcriptional activation. The following applies: beta-estradiol 1 µM; induction time 4 h. Summed up:
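The listed activation activity is a read-weighted mean of bin median fluorescence, averaged across barcodes and linearly mapped onto the initial dataset scale. Barcoded tiles, fused to an estradiol-inducible synthetic transcription factor, were integrated at URA3 in yeast diploids bearing a GFP reporter. Cells were held 4 hours at 30 °C in SC with 1 uM beta-estradiol, sorted into 8 GFP:mCherry bins, and sequenced, and tiles with fewer than 50 reads were excluded.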

In the case of “RQCMLYLIAYFMLQETFGTYFNVTGILQNEYYRPSFGLLPLLMRARIIHYSPL”, the “transcriptional activation domain activity” value is 34600.
On to “RQEREGYEDYEDGSRRKHKNRHSRSPSSDGEDRISRKRKSRRAKDVEDSHANS”, for which the “transcriptional activation domain activity” value came out at 25500.
Turning to “RQESSPRLPSPSHTQQRERNQTPCAARSSSSSPRRPRPQPQPSTSAPSSPASP”, the “transcriptional activation domain activity” value is 29400.
With “RQIESMVAPCLVELRIWNIGAYANLCEYSTWLRLWWIRWSMYGIQFQDKTGKP” the figure was 61100; with “RQLAWECLHHCSVQLRPSGATIRDSLRAAAHYVKHLAIQHKLVLVALQPFFAY”, 43100.
As to “RQLFIRGRMQTIMLDCFLELCYRGACSLSSFEHPINWFEAPSDCLIWIRRMMY”, the “transcriptional activation domain activity” value was 36600.
“RQLVLLQKAEVDLFYMTVALILICALCAGLCLNIAIQARGTTLLTNWTQLEFC”: the “transcriptional activation domain activity” value worked out at 58300.
With “RQNEKTETGKAEARTRRETGARKEHAKSGDRNAKENRNGERKQREHEKDKDGG” the figure was 26000; with “RQQDSSQSDRDSSRDSRTRDARHHSRRDGERRQRAESNGNLRPAEESRRGRSE”, 25400; with “RQRAGASGGEEARGRREGRREGGEGEGEGKTEEGTNERDGREGERREGRRRGG”, 37700.
The figure for “RQREGQIERRGEGRAWRTEGGARGGRRKGARREKGTGREGRRRARKKAKRDRP” is 27600.
Take “RQRKDNHKEVERRRRGNINEGINELGRIVPNGSGEKAKGAILSRAVQYIHHLK”: the “transcriptional activation domain activity” value stood at 13600.
On to “RQRQQNGRAPRAPRAEKPTDGFEVKEGRGERRGRGEGRGEGRGRGRGGRGRGR”, for which the “transcriptional activation domain activity” value was 13000.
Turning to “RQSTSRRSDPGPVSRVTELARSDQDTTTTKLVSRLRATAQIRVQVVLAIVFRH”, the “transcriptional activation domain activity” value came out at 53200.
Consider “RQTEKPLRSVYCYLIWGEIFVCLVFSIICWCHLYGLFGGSFEFYFMILTLWAL”, for which the “transcriptional activation domain activity” value is 33000.
The figure for “RQYRKRKAPAPAEGEENGEVAPAAPKPKRQRKKKPAPEEGAENTDGTAAAPKP” is 47000; for “RRARAHAGMRTRARGGQRAEGVGGVQKARRQTAQGARGACRGREGRRAAGGRL” it is 8470.
Consider “RRARSVVEVAQTDDTGEEEDNNINSSNNINNKKKKIILELENGAETLEGDLLL”, for which the “transcriptional activation domain activity” value came to 16500.
As to “RRAVRPADADEREAVARVRPRARRRLGDVRDELDPRRGRRRVHGRIWGGVVRL”, the “transcriptional activation domain activity” value stood at 68000.
Regarding “RRDALRAQQQRDTHARHGAGAARKHGQPVCVRQHRGQLHLSEPVGGAAAAAVH”, the “transcriptional activation domain activity” value was determined as 66200.
“RRDCATSSDARTPARLCCSHGVGTKLDKAETSREVSAEEARALADAHGARFCE”: the “transcriptional activation domain activity” value came to 24300.
The figure for “RRDILHRAIVFEGDAARSGTASTKWRSEVRGSARKMRPQKGSGRARLGDKKSP” is 15600; for “RRDSVSSSSRGQGGEKGRASSKESNNSGRQGETTSNRSQSKNRAKQTKGDKDS” it is 15900.
Turning to “RRDVTLMGGLCLHTIQGAYLAACAYFVVPFSLVVSLGFEALLLLFCFIFIFIF”, the “transcriptional activation domain activity” value is 50400.
“RREERRGEDGHRHRRTRRYSEDEDEEGERRSRGKERGGEERREKRREERRDAG”: the “transcriptional activation domain activity” value stood at 16800.
Consider “RRERKERKRARKEKDRRKRRHRRSQTDSDEEDRERHRDSRRKRSRSASRERRE”, for which the “transcriptional activation domain activity” value was 20000.
For “RRGEGRRGEGRRGEGRRGEGRRGEGRRGEGRGGEGRGGRGGRGRGSSGTGTGS”, the “transcriptional activation domain activity” value was found to be 28000.
Regarding “RRGSKGKQRASGNRGPGGSGGSRGWGQRTASHGKAGKGTGKRSGSNSGSHGES”, the “transcriptional activation domain activity” value turned out to be 37100.
“RRKEKKPRFAKKDKGSKEPVSKTCRIALRIKLCHGNICVMEVSLSVLASLVLH”: the “transcriptional activation domain activity” value is 53100.
As for “RRKRRERREEERGRDKQGEEGGGRKGGGNRKEGGGGRRGRRSRGGGGGGAEGA”, the “transcriptional activation domain activity” value stood at 27800.
As for “RRKRRRRGGEDEQQAEVEDNDRHRSSRHHRRRRRETSEEKSPRRRATDRRRHP”, the “transcriptional activation domain activity” value came to 34600.
In the case of “RRLAGLLRHLQHRTREMGGHIVLIADPTQVCFVLLRPIIKKPALPAELVRKFW”, the “transcriptional activation domain activity” value was 44800.
Turning to “RRNRRTDKKRNEKESEHEGSTRKRTSYDKDDERAHSDSRRSRHHHRKERKNRH”, the “transcriptional activation domain activity” value turned out to be 32100.
The figure for “RRPRAAKPGTEQPKPETEKPGSEKRPGSEKRPRGRPRKAAAKPSTEKQPSNAK” is 21300; for “RRRFHRRVTGCNCGVKTYKLGESYNDEFESTYLSYYACRICLLVTSLYIARFW” it is 44500; for “RRRFRNAKYFVHFIQLVRLLNICLQFEISNAEIEEVRVGFIAWVRRYEELYYQ” it is 42800.
In the case of “RRRGGRGAGEGGEGEQEKGEGEQEKGEGEQERGGKGSRRRGGRGAGEGGEGEQ”, the “transcriptional activation domain activity” value was 13900.
“RRRKSNSTKPGNAGSKPAKKNKGANSNERERESKEVDEDEDEGNGGGEGEGEE”: the “transcriptional activation domain activity” value was determined as 8620.
Turning to “RRRLNYISTRGLPHFFVLLFLIGLLILIVAMRVCLHILSKSSPLFFFLLILGC”, the “transcriptional activation domain activity” value amounted to 38500.
As to “RRRRAKSRDPERVRERSERRASRSPEKKDKSARSKSRLGRLAAGAAAAGAAAI”, the “transcriptional activation domain activity” value is 42800.
Regarding “RRRRKARSARLKKAEKTAAAVGQEAKPKAENAEGASVPPRRKRRRARSRKPKK”, the “transcriptional activation domain activity” value came out at 28100.
“RRRRRHEEGGRGGDRSRGRDGERSSTRHEERRHRSRDRRDDRDRDRGSERRGH”: the “transcriptional activation domain activity” value was 44500.
Turning to “RRRVNLLVCTCGMLISLIVVGGLGTTHRGGPFNKPVGITIVVFSYINIICFNF”, the “transcriptional activation domain activity” value is 45300.
Turning to “RRRWINSTIHNLFEVVLLPDLCGFCCFSMRFVVLIDLIGTLTLPVSVIYLVYL”, the “transcriptional activation domain activity” value was 63200.
With “RRRWINSTVHNLCELIILPELFGFCCFSMRFFVFLDLLGTLILPATVVYLVYL”, the “transcriptional activation domain activity” value stood at 51600.
As to “RRSHRSHHSSRSRDEEGKERRSSRGEDEKRAHRSRDEDEGRRRRRSHRDRDEE”, the “transcriptional activation domain activity” value worked out at 18900.
The figure for “RRSKHSSRSHRSRRHRDRSVSDENGTERRHKSERRHKHRHRSRSGGSRERRHT” is 47200; for “RRTPFLGVGRSEGKMRLEKFVDEIGQQREDGTDEFLVRGSKEEKTDVVTAVNH” it is 9610.
For the sequence “RRTRYLVLCVALELISSILYLYLISIFGSLHLATFPLRLGFFFLLLSRLLCTM”, the “transcriptional activation domain activity” value worked out at 35100.
With “RRTSSTSSPSRSSSGTRARARSRSSRSTRSAAACSPSTRRAPRPTARPSSRPS”, the “transcriptional activation domain activity” value came out at 27400.
As for “RRVGEVMCFQALLHFLGMLSFWYGVLRRLGFTLINFFLNRVVLLGLLAFICYE”, the “transcriptional activation domain activity” value came out at 69500.
With “RRVLVLVMEELGYRTDHAFRIAHRLDRLYQMALTRFLTLTAGVIDLMERIRMS”, the “transcriptional activation domain activity” value is 58400.
On to “RRVTGKVLLLVWKLGVRPRLNVFEGVVHRLAVAGCFSQIPPAVALCRRILNRI”, for which the “transcriptional activation domain activity” value stood at 59000.
With “RRVTSMRLDTEGYVGVLGVEVDFRGRMFDLTADILVRVRYCLQSTILLLEIPL” the figure was 55100.
With “RRVWLKYILYFVYGIVDWVYSTSLLKTMVWLRLPLYITVGKHVLVGLVGSMWV” the figure was 50000; with “RRWQWYWGCFVCACALISLFLNVEVDRYRVQQLPLIVTSFFWYLMCMGTTCVV”, 44600; with “RRWTRSKWLLLCTYGMMFCIGLTMLLGCLLTWFRGYLRAEVITVGFKRILIIA”, 47500.
Regarding “RSAPGGRAGGRDGGSSSSSSDSSDEERETDGPVRKRRRTATSGARKAAPKSRP”, the “transcriptional activation domain activity” value was found to be 29200.
Consider “RSDRDRRRKQSPESRGRRHRSRSKDARREKRKRADSEGEQSARRSRPSEHHRR”, for which the “transcriptional activation domain activity” value amounted to 19100.
Take “RSEKRSEERSSRSGPTDRVEGQERGSDRERGREKRGSDRESSRRDRGGEGERA”: the “transcriptional activation domain activity” value was found to be 31700.
As for “RSESGSPARRKKKRSSRDSEDSAGESSDSDAGARRKSRKGKDSRRDRKSKKDK”, the “transcriptional activation domain activity” value was determined as 37600.
Consider “RSGYGSRDLYEYDLIEVRRTQVETALILTGLISLMKTNRSRERYVHTEHVTGT”, for which the “transcriptional activation domain activity” value stood at 39500.
Consider “RSHAGRGRSRSREKHEHHRSHHHREKRRRESEIERRDSKRAASPKSKPSENIH”, for which the “transcriptional activation domain activity” value stood at 27100.
As to “RSKAKDDDRSSDESDSKSSKSNKSKRSKHNNDSDSENGSSDEDRGSKRRKKSK”, the “transcriptional activation domain activity” value stood at 23000.
With “RSKHWEMLSVLHAGMVLLTAWFFFHCIDLIIHLERARVAYGYIVVPALFDILR”, the “transcriptional activation domain activity” value is 46500.
“RSKSSDESSSDSDSDSGSESGSDSDTSRRKRSKSKSSSRSKSKSKSSKLRARS”: the “transcriptional activation domain activity” value worked out at 10600.
Regarding “RSKVLRPFWLFLLALCYNLVHATALFYQVITLNVAVNSYSNALLTLLMSNQFV”, the “transcriptional activation domain activity” value is 53500.
The figure for “RSLGIVFYFGLLLSFYFEFFFSSIFSFVIIIWLYPIGFLYICLSAAIPFPLLN” is 65000.
For “RSLLWQLSVWSFIKLMILMLFGYRMEAISILGREVMLPRGLIGLGYDSIDHCG”, the “transcriptional activation domain activity” value worked out at 47800.
In the case of “RSLQLSWSILLRFFKEHFCMDRLSLTIVDLGTLGSPLIRSERNGYLRRFFQVF”, the “transcriptional activation domain activity” value was found to be 46700.
With “RSMLFPKPSGFKFYRDSFRYISVMACVAMLGFIATFINFIRLGIAWHLIIVRA” the figure was 54400; with “RSPRRQTQSSSTTPPARKTPTQTTKTHRTTSPTTRSSCRRASGRQTAPTHSSC”, 43100.
Turning to “RSRAEGGSSPGRGGSEDGAGAGKPGKERRDKSRGARAKQCGCKAVNQDKSCEC”, the “transcriptional activation domain activity” value was 21900.
With “RSRRAHPRTTSSRASPSCARSSRAPPRATSSSASTTSSTGTRSRTTTPSTSPR” the figure was 18000.
